The target of assay [1] is T1, factor VIIIa (Homo sapiens, UniProt P00451).
T1 construct: to yield factor VIIIa, a heterotrimer composed of A1, A2 and A3-C1-C2 subunits; cleaved by thrombin at R372-S373, R740-S741, and R1689-S1690 to yield factor VIIIa
T1 sequence (P00451 20-391): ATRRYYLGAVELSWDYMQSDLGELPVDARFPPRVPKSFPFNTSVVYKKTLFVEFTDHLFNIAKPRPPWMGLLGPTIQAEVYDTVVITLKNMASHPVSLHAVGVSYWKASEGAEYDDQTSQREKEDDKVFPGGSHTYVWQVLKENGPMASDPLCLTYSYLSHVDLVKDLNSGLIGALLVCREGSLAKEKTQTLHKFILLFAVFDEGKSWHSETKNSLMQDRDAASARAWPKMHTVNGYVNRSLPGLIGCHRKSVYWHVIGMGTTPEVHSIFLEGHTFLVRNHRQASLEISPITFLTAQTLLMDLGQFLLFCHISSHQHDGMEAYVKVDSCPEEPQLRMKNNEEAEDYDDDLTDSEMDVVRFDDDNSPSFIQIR
T1 sequence (P00451 392-759): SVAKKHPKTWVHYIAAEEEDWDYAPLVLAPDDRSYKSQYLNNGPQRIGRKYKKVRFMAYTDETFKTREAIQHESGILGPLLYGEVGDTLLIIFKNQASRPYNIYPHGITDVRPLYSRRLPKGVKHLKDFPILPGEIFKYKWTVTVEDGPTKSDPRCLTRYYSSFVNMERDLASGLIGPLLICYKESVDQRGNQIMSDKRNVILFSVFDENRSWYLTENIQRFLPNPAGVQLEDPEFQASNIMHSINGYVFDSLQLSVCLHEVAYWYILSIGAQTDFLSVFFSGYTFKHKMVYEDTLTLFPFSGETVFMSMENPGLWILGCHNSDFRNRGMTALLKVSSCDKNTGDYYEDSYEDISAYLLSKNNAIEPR
T1 sequence (P00451 1709-2351): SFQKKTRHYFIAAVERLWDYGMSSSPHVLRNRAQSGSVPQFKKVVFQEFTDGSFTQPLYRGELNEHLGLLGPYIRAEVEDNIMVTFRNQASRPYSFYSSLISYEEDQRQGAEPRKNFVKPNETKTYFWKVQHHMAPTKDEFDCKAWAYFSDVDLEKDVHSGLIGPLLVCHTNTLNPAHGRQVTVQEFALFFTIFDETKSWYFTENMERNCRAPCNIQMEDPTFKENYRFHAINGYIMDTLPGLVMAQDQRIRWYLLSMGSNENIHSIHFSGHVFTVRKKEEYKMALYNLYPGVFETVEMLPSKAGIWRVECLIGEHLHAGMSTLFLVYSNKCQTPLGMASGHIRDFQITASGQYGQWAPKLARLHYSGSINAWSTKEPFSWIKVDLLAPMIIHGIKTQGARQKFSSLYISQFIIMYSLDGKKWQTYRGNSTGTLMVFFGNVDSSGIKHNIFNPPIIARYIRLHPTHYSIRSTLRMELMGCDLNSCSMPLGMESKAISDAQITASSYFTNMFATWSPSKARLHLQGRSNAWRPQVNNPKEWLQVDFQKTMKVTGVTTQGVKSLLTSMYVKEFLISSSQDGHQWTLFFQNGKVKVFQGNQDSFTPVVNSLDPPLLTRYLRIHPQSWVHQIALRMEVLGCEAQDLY
The assay can be described thus: EC50 for factor IXa-factor VIIIa interaction in the tenase complex. It is filed as biochemical. The settings on record: 0.07 nM factor VIIIa, 480 nM factor X, 10 μM PL, 5 mM CaCl2; read-out: EC50 (functional Kd) for factor IXa-factor VIIIa interaction. The procedure:
Determination of the EC50 of for Factor IXa-Factor VIIIa Interaction in the Tenase Complex
These experiments are performed with normal factor IXa in the presence of phospholipid (PL) vesicles. 50-μl reaction mixtures in TBS-BSA (50 mM Tris-HCl, pH 7.4, 1 mg/ml BSA) with 5 mM CaCl2 and 10 μM PL are prepared containing a fixed concentration of factor VIIIa (0.07 nM) and various concentrations of factor IXa (0-20 nM) at a constant concentration of factor X (480 nM), which is added last to initiate the reaction. The reaction is carried out at 37° C. for 30-120 seconds at which time 1 μl of 0.5 M EDTA is added to stop further generation of factor Xa. A 40 μl aliquot is added to a 0.1-mL quartz cuvette containing a synthetic substrate S-2222 in 75 μl of TBS-BSA, pH 7.4. The final concentration of S-2222 is 100 μM. The p-nitroaniline release is measured continuously (ΔA405/min) for up to 20 minutes (Mathur et al., 1997). Factor Xa generated is calculated from a standard curve constructed using factor Xa prepared by insolubilized Russell's viper venom. In control experiments, at each factor X concentration used, the rate of factor Xa generation is also measured at various concentrations of normal factor IXa in the absence of factor VIIIa; these control values are ˜5% of the experimental values in the presence of factor VIIIa and are subtracted before analysis of the data. […]

Assay [2] concerns the target IXaPCEGF1:A2 subunit interaction. The assay can be described thus: A2 558-565 peptide inhibition of IXaPCEGF1:A2 subunit interaction (factor X activation, tenase system). The note with it: 100 nM IXaPCEGF1, 30 nM A2 subunit, 250 nM factor X, 25 μM PL (FIG. 5). It is filed as biochemical, human. The procedure: (§1) Determination of the Apparent Kdpeptide of Binding of Each Factor IXa to the A2 558-565 Peptide.
(§2) The apparent Kd (termed Kdpeptide) for binding of each factor IXa to the A2 558-565 peptide was determined by its ability to inhibit the respective IXa:A2 subunit interaction as measured by reduction in the rate of factor X activation in the tenase system. The reaction mixtures for both IXaWT and IXaPCEGF1 contained 100 nM factor IXa, 30 nM A2 subunit, 250 nM factor X, and 25 μM PL in TBS/BSA, pH 7.5 with 5 mM CaCl2. The reaction mixture for IXaR333Q contained 300 nM factor IXa instead of 100 nM used for IXaWT or IXaPCEGF1; concentrations of other components were the same. The amount of factor Xa generated was determined by hydrolysis of S-2222. The IC50 values were obtained using Eq. 2. Here, y is the rate of factor Xa formation in the presence of a given concentration of the A2 558-565 peptide represented by x, and a is the maximum rate of factor Xa formation in the absence of the A2 peptide. Eq. 3 was then used to obtain the apparent Kdpeptide values. In this context, A is the concentration of IXaWT, IXaPCEGF1, or IXaR333Q, and EC50 is the apparent KdA2 for the respective IXa:A2 subunit interaction.

In assay [3] the target is T2, IXaR333Q:A2 subunit interaction (Homo sapiens, UniProt P00740, R379Q).
T2 construct: made in house
The assay can be described thus: A2 558-565 peptide inhibition of IXaR333Q:A2 subunit interaction (factor X activation, tenase system). It is filed as biochemical. The procedure: as §1, §2

Assay [4] deals with factor Xa generation. The settings on record: Fay et al., 1994; Fay and Koshibu, 1998; cited from earlier work.
The target in assay [5] is factor IXaPCEGF1 (factor IXa replacement mutant in which the EGF1 domain is replaced by that of protein C) (human) (UniProt P04070). The assay can be described thus: apparent Kdpeptide against that of WT.
The target is the same in assay [6]. The assay can be described thus: calculated from apparent Kdpeptide, against WT.
Assay [7] has as its target T3, factor IXaR333Q (factor IXa point mutant in which Arg333 is replaced by Gln) (human, UniProt P00740 47-190; P00740 227-461, gamma-carboxyglutamic acid residues in the Gla domain (normal Gla content)).
T3 construct: R333 is c165 in chymotrypsin numbering; also called IXR333Q
The assay can be described thus: apparent Kdpeptide against that of WT. The text has this: Eq. 3 was then used to obtain the apparent Kdpeptide values.
(§3) The Cheng and Prusoff relationship (Cheng and Prusoff, 1973; Craig, 1993) was then used to obtain apparent Kdpeptide values for each factor IXa protein.

In assay [8] the target is factor IXaPCEGF1 (factor IXa replacement mutant in which the EGF1 domain is replaced by that of protein C) (human) (UniProt P04070). The assay can be described thus: calculated from apparent Kdpeptide (RT ln Kd, 298 K).
The target in assay [9] is T3, factor IXaR333Q (factor IXa point …). As to the kind of experiment: peptide inhibition of IXa:A2 interaction; factor Xa generation (FIG. 5). The procedure:
(§4) Factor Xa generation was determined by S-2222 hydrolysis, and the curves represent best fit to the IC₅₀ four-parameter logistic equation (Eq. 2).
(§5) The amount of factor Xa generated was determined by hydrolysis of S-2222. The IC₅₀ values were obtained using Eq. 2. […] Eq. 3 was then used to obtain the apparent Kdpeptide values.

The target in assay [10] is factor IXaPCEGF1 (factor IXa replacement mutant in which the EGF1 domain is replaced by that of protein C) (human) (UniProt P04070). As to the kind of experiment: peptide inhibition of IXaPCEGF1:A2 in tenase assay (FIG. 5); IC50 converted by Cheng-Prusoff; apparent Kdpeptide.
Assay [11] shares this target. The assay can be described thus: peptide inhibition of IXaPCEGF1:A2 interaction; 100 nM IXa, 30 nM A2, 250 nM factor X; factor Xa generation (FIG. 5).
Assay [12] deals with T4, factor IXaWT (wild-type recombinant factor IX activated by factor XIa) (human, UniProt P00740 47-190; P00740 227-461, gamma-carboxyglutamic acid residues in the Gla domain (residues 1-40, 12 Gla; normal Gla content)).
T4 construct: Two-chain, disulfide-linked protease; also called IXWT
As to the kind of experiment: peptide inhibition of IXaWT:A2 interaction; 100 nM IXa, 30 nM A2, 250 nM factor X; factor Xa generation (FIG. 5). The procedure:
as §4, §5

The target of assay [13] is T4, factor IXaWT (wild-type recombinant …). The assay can be described thus: peptide inhibition of IXaWT:A2 in tenase assay (FIG. 5); IC50 converted by Cheng-Prusoff; apparent Kdpeptide. The procedure:
as §5, §3

For assay [14], the target named is T3, factor IXaR333Q (factor IXa point …). As to the kind of experiment: peptide inhibition of IXaR333Q:A2 interaction; 300 nM IXa, 30 nM A2, 250 nM factor X; factor Xa generation (FIG. 5). The procedure:
as §4, §5

Assay [15] shares this target. As to the kind of experiment: peptide inhibition of IXaR333Q:A2 in tenase assay (FIG. 5); IC50 converted by Cheng-Prusoff; apparent Kdpeptide. The procedure:
as §5

No end group written: not given here.

By EC50 is commonly meant the concentration needed to bring the measured effect to its halfway point. One may read the IC50 as the concentration that inhibits the measured activity by half.

T3 sequence (P00740 47-190, change not shown, form in doubt, chain 1 of 2): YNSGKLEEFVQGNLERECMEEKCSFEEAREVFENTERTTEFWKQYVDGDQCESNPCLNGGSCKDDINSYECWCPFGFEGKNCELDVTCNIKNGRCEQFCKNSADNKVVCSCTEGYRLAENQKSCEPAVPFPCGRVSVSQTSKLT
T3 sequence (P00740 other isoform, or with tags, fused parts or gaps mutant, form in doubt, chain 2 of 2): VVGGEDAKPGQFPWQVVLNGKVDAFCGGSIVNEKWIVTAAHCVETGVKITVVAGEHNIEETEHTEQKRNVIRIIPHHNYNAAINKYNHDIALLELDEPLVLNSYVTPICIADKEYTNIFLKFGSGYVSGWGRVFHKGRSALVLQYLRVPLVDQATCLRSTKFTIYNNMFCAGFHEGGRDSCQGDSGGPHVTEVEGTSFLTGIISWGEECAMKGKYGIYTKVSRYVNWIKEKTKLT
T4 sequence (P00740 47-190, form in doubt, chain 1 of 2): as the sequence (P00740 47-190, change not shown, form in doubt, chain 1 of 2) above
T4 sequence (P00740 227-461, form in doubt, chain 2 of 2): as the sequence (P00740 other isoform, or with tags, fused parts or gaps mutant, form in doubt, chain 2 of 2) above, with Q153R counted along it
T2 sequence (P00740 47-191): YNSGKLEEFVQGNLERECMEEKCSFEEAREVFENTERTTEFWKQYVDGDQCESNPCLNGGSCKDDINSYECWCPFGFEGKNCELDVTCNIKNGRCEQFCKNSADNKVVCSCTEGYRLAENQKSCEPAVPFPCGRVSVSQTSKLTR
T2 sequence (P00740 227-461 R379Q): as the sequence (P00740 other isoform, or with tags, fused parts or gaps mutant, form in doubt, chain 2 of 2) above

“normal factor IXa: normal factor IXa used in the tenase complex of Example 2”: the EC50 in assay [1] is roughly 0.0004 µM.

As for SVDQRGNQ [A2 558-565 peptide], the IC50 in assay [2] is roughly 8 µM. In addition, the “Fold higher IC50 for IXaR333Q:A2 than for IXaWT or IXaPCEGF1” value in assay [3] was roughly 9 fold. In assay [4], the “Effect on factor Xa generation in purified systems” value is given as “inhibit factor Xa generation”.

As for SVDQRGNQ [synthetic peptide corresponding to the A2 subunit residues 558-565 (Ser-Val-Asp-Gln-Arg-Gly-Asn-Gln)], the values for the fold-change in apparent Kd (mutant/WT) in assay [5] and in [7] were 1 fold and 15 fold, respectively. Further, the change in delta G° between the mutant and WT in [6] is 0 kcal/mol. Also, in assay [8], the Gibbs free energy (delta G° peptide) is 7.36 kcal/mol. Also, the “fold higher IC50 than for IXaWT or IXaPCEGF1” value in [9] was roughly 9 fold. Also, the values for the Kd in assay [10], in assay [13] and in [15] were 4 µM, 4 µM and 62 µM, respectively. The IC50 in assay [11] is 8 µM; in assay [12] it was roughly 8 µM; in [14], roughly 70 µM.

(Values after patent US20040126856A1, “Factor ixa: factor Vllla interaction and methods therefor” (priority 2004, published 2004).)
